Measured values as given in PMC4686002 (2015).

How the values were obtained:
[1] = biological target: the molecule itself; test: analytical ultracentrifugation (sedimentation velocity)
[2] = biological target: T1, FtsZ C-terminal tail peptide C-terminal tail peptide (Escherichia coli, UniProt P0A9A6); test: ITC
T1 chain: KEPDYLDIPAFLRKQAD

Kd [2]: 32 µM
B1: ZapC (protein)
chain: not shown
Kd [1]: ~30 µM
